Drawing on article PMC6318328, “Structural insights into trans-histone regulation of H3K4 methylation by unique histone H4 binding of MLL3/4” (Nature Communications, 2019), this text covers fold reduction of binding against the wild type for one substance.

The assay has as its target MLL3 ePHD6 E1097A (human) (UniProt Q8NEZ4). In words: ITC; peptide (1–2 mM) in the syringe injected into protein (50–100 μM) in the cell; 25 °C; 20 mM Tris pH 7.5, 150 mM NaCl; single-site binding model. (In ITC the heat of successive injections is recorded.)

The substance “histone H4 peptide H4_(11–21) (from UniProt P62805 12-22)” came in with a fold reduction of binding against the wild type of 2 fold.
